Laboratory results as given in patent US20250206828A1, “ANTI-ADENOSINE RECEPTOR (A2aR) ANTIBODIES AND THE USE THEREOF” (Adept Therapeutics Inc., priority 2022, published 2025).

Biological target: T1, human adenosine A2A receptor (A2aR) (human, UniProt P29274 1-412)
T1 construct: Assays used HEK293 cells stably overexpressing human A2aR (BPS Bioscience 79381), human A2aR-expressing CHO cells, or endogenous A2aR on human PBMC; also called human A2aR; hA2aR
Assay: flow cytometry, HEK293-hA2aR cells, supernatant 1 ug/ml

T1 sequence (P29274 whole entry): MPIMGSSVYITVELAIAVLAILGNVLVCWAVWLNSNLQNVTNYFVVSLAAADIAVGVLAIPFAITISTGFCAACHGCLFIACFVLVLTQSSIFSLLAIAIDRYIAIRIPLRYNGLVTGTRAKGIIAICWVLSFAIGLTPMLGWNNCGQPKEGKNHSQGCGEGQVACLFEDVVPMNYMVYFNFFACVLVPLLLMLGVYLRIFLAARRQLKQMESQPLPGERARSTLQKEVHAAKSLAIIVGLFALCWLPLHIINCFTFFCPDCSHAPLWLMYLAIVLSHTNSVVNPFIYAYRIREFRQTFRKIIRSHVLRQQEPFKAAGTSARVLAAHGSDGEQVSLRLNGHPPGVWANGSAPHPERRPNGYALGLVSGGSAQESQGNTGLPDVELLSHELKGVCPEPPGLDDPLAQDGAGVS

| Binder | MFI [MFI] |
| --- | --- |
| Hu1B5-H1/Hu1B5-L4 (antibody, human IgG1, V domains shown, Human IgG1 FES (L234F, L235E, P331S) and human Ig kappa constant domains) VH: QVQLVQSGAEVKKPGASVKVSCKASGFTFTRFWMNWVRQAPGQGLEWMGRIDPYDSETQYNHKFWDRVTMTRDTSTSTVYMELSSLRSEDTAVYYCGRSLYGKGDYWGQGTTVTVSS VL: DVVMTQSPLSLPVTPGEPASISCRSSQSIVHSNGNTYLEWYLQKPGQSPQLLIYKVSNRFSGVPDRFSGSGSGTDFTLKISRVEAEDVGVYYCFQGSHVPLTFGGGTKVEIK | 1570 |
| Hu1B5-H2.1/Hu1B5-L5 (antibody, human IgG1, V domains shown, Human IgG1 FES (L234F, L235E, P331S) and human Ig kappa constant domains) VH: EVQLVQSGAEVKKPGASVKVSCKTSGFTFTRFWMNWVRQAPGQGLEWIGRIDPYDSETQYNHKFWDRVTMTVDTSTSTVYMELSSLRSEDTAVYYCGRSLYGKGDYWGQGTTVTVSS VL: DIVMTQSPDSLAVSLGERATINCRSSQSIVHSNGNTYLEWYQQKPGQPPKLLIYKVSNRFSGVPDRFSGSGSGTDFTLTISSLQAEDVAVYYCFQGSHVPLTFGGGTKVEIK | 960 |
| Hu1B5-H1/Hu1B5-L1 (antibody, human IgG1, V domains shown, Human IgG1 FES (L234F, L235E, P331S) and human Ig kappa constant domains) VH: QVQLVQSGAEVKKPGASVKVSCKASGFTFTRFWMNWVRQAPGQGLEWMGRIDPYDSETQYNHKFWDRVTMTRDTSTSTVYMELSSLRSEDTAVYYCGRSLYGKGDYWGQGTTVTVSS VL: DVVMTQSPLSLPVTLGQPASISCRSSQSIVHSNGNTYLEWFQQRPGQSPRRLIYKVSNRFSGVPDRFSGSGSGTDFTLKISRVEAEDVGVYYCFQGSHVPLTFGGGTKVEIK | 34 |
| Hu1B5-H5/Hu1B5-L5 (antibody, human IgG1, V domains shown, Human IgG1 FES (L234F, L235E, P331S) and human Ig kappa constant domains) VH: EVQLVQSGAEVKKPGASVKVSCKTSGFTFTRFWMNWVRQAPGQGLEWIGRIDPYDSETQYAHKFWDRATLTVDKSSSTVYMELSSLRSEDTAVYYCGRSLYGKGDYWGQGTTVTVSS VL: DIVMTQSPDSLAVSLGERATINCRSSQSIVHSNGNTYLEWYQQKPGQPPKLLIYKVSNRFSGVPDRFSGSGSGTDFTLTISSLQAEDVAVYYCFQGSHVPLTFGGGTKVEIK | 823 |
| Hu1B5-H2/Hu1B5-L4 (antibody, human IgG1, V domains shown, Human IgG1 FES (L234F, L235E, P331S) and human Ig kappa constant domains) VH: EVQLVQSGAEVKKPGASVKVSCKTSGFTFTRFWMNWVRQAPGQGLEWMGRIDPYDSETQYNHKFWDRVTMTVDTSTSTVYMELSSLRSEDTAVYYCGRSLYGKGDYWGQGTTVTVSS VL: DVVMTQSPLSLPVTPGEPASISCRSSQSIVHSNGNTYLEWYLQKPGQSPQLLIYKVSNRFSGVPDRFSGSGSGTDFTLKISRVEAEDVGVYYCFQGSHVPLTFGGGTKVEIK | 1630 |
| Hu1B5-H3/Hu1B5-L5 (antibody, human IgG1, V domains shown, Human IgG1 FES (L234F, L235E, P331S) and human Ig kappa constant domains) VH: EVQLVQSGAEVKKPGASVKVSCKTSGFTFTRFWMNWVRQAPGQGLEWIGRIDPYDSETQYNHKFWDRATLTVDTSSSTVYMELSSLRSEDTAVYYCGRSLYGKGDYWGQGTTVTVSS VL: DIVMTQSPDSLAVSLGERATINCRSSQSIVHSNGNTYLEWYQQKPGQPPKLLIYKVSNRFSGVPDRFSGSGSGTDFTLTISSLQAEDVAVYYCFQGSHVPLTFGGGTKVEIK | 686 |
| Hu1B5-H4/Hu1B5-L5 (antibody, human IgG1, V domains shown, Human IgG1 FES (L234F, L235E, P331S) and human Ig kappa constant domains) VH: EVQLVQSGAEVKKPGASVKVSCKTSGFTFTRFWMNWVRQAPGQGLEWIGRIDPYDSETQYNHKFWDRATLTVDKSSSTVYMELSSLRSEDTAVYYCGRSLYGKGDYWGQGTTVTVSS VL: DIVMTQSPDSLAVSLGERATINCRSSQSIVHSNGNTYLEWYQQKPGQPPKLLIYKVSNRFSGVPDRFSGSGSGTDFTLTISSLQAEDVAVYYCFQGSHVPLTFGGGTKVEIK | 872 |
| Hu1B5-H2.1/Hu1B5-L4 (antibody, human IgG1, V domains shown, Human IgG1 FES (L234F, L235E, P331S) and human Ig kappa constant domains) VH: EVQLVQSGAEVKKPGASVKVSCKTSGFTFTRFWMNWVRQAPGQGLEWIGRIDPYDSETQYNHKFWDRVTMTVDTSTSTVYMELSSLRSEDTAVYYCGRSLYGKGDYWGQGTTVTVSS VL: DVVMTQSPLSLPVTPGEPASISCRSSQSIVHSNGNTYLEWYLQKPGQSPQLLIYKVSNRFSGVPDRFSGSGSGTDFTLKISRVEAEDVGVYYCFQGSHVPLTFGGGTKVEIK | 1720 |
| Hu1B5-H4/Hu1B5-L4 (antibody, human IgG1, V domains shown, Human IgG1 FES (L234F, L235E, P331S) and human Ig kappa constant domains) VH: EVQLVQSGAEVKKPGASVKVSCKTSGFTFTRFWMNWVRQAPGQGLEWIGRIDPYDSETQYNHKFWDRATLTVDKSSSTVYMELSSLRSEDTAVYYCGRSLYGKGDYWGQGTTVTVSS VL: DVVMTQSPLSLPVTPGEPASISCRSSQSIVHSNGNTYLEWYLQKPGQSPQLLIYKVSNRFSGVPDRFSGSGSGTDFTLKISRVEAEDVGVYYCFQGSHVPLTFGGGTKVEIK | 1780 |
| Hu1B5-H1/Hu1B5-L5 (antibody, human IgG1, V domains shown, Human IgG1 FES (L234F, L235E, P331S) and human Ig kappa constant domains) VH: QVQLVQSGAEVKKPGASVKVSCKASGFTFTRFWMNWVRQAPGQGLEWMGRIDPYDSETQYNHKFWDRVTMTRDTSTSTVYMELSSLRSEDTAVYYCGRSLYGKGDYWGQGTTVTVSS VL: DIVMTQSPDSLAVSLGERATINCRSSQSIVHSNGNTYLEWYQQKPGQPPKLLIYKVSNRFSGVPDRFSGSGSGTDFTLTISSLQAEDVAVYYCFQGSHVPLTFGGGTKVEIK | 481 |
| Hu1B5-H5/Hu1B5-L4 (antibody, human IgG1, V domains shown, Human IgG1 FES (L234F, L235E, P331S) and human Ig kappa constant domains) VH: EVQLVQSGAEVKKPGASVKVSCKTSGFTFTRFWMNWVRQAPGQGLEWIGRIDPYDSETQYAHKFWDRATLTVDKSSSTVYMELSSLRSEDTAVYYCGRSLYGKGDYWGQGTTVTVSS VL: DVVMTQSPLSLPVTPGEPASISCRSSQSIVHSNGNTYLEWYLQKPGQSPQLLIYKVSNRFSGVPDRFSGSGSGTDFTLKISRVEAEDVGVYYCFQGSHVPLTFGGGTKVEIK | 1710 |
| Hu1B5-H3/Hu1B5-L4 (antibody, human IgG1, V domains shown, Human IgG1 FES (L234F, L235E, P331S) and human Ig kappa constant domains) VH: EVQLVQSGAEVKKPGASVKVSCKTSGFTFTRFWMNWVRQAPGQGLEWIGRIDPYDSETQYNHKFWDRATLTVDTSSSTVYMELSSLRSEDTAVYYCGRSLYGKGDYWGQGTTVTVSS VL: DVVMTQSPLSLPVTPGEPASISCRSSQSIVHSNGNTYLEWYLQKPGQSPQLLIYKVSNRFSGVPDRFSGSGSGTDFTLKISRVEAEDVGVYYCFQGSHVPLTFGGGTKVEIK | 1550 |
| Hu1B5-H2/Hu1B5-L5 (antibody, human IgG1, V domains shown, Human IgG1 FES (L234F, L235E, P331S) and human Ig kappa constant domains) VH: EVQLVQSGAEVKKPGASVKVSCKTSGFTFTRFWMNWVRQAPGQGLEWMGRIDPYDSETQYNHKFWDRVTMTVDTSTSTVYMELSSLRSEDTAVYYCGRSLYGKGDYWGQGTTVTVSS VL: DIVMTQSPDSLAVSLGERATINCRSSQSIVHSNGNTYLEWYQQKPGQPPKLLIYKVSNRFSGVPDRFSGSGSGTDFTLTISSLQAEDVAVYYCFQGSHVPLTFGGGTKVEIK | 728 |

Biological target: T1, human adenosine A2A receptor (A2aR)
Assay: as above
Remark: another data set of the same source

| Binder | MFI [MFI] |
| --- | --- |
| Hu3F6-H5/Hu3F6-L6 (antibody, human IgG1, V domains shown, Human IgG1 FES (L234F, L235E, P331S) and human Ig kappa constant domains) VH: EVQLVQSGAEVKKPGASVKVSCKTSGFAFTSYWMNWVRQAPGQGLEWIGRIDPSDSEAHYAHKFWGRATLTVDKSSSTVYMELSSLRSEDTAVYYCLRSLYGKGDYWGHGTTVTVSS VL: DIVMTQTPPSLPVNPGEPASISCRSSQSLVHRNGNTYLEWYLQKPGQSPQLLIYKVSNRFSGVPDRFSGSGSGSDFTLKISWVEAEDVGVYYCYQGSHVPLTFGGGTKVEIK | 1840 |
| Hu3F6-H4/Hu3F6-L3 (antibody, human IgG1, V domains shown, Human IgG1 FES (L234F, L235E, P331S) and human Ig kappa constant domains) VH: EVQLVQSGAEVKKPGASVKVSCKTSGFAFTSYWMNWVRQAPGQGLEWIGRIDPSDSEAHYHHKFWGRATLTVDKSSSTVYMELSSLRSEDTAVYYCLRSLYGKGDYWGHGTTVTVSS VL: DVVMTQSPLSLPVTLGQPASISCRSSQSLVHRNGNTYLEWYQQRPGQSPRLLIYKVSNRFSGVPDRFSGSGSGTDFTLKISRVEAEDVGVYYCYQGSHVPLTFGGGTKVEIK | 1960 |
| Hu3F6-H4/Hu3F6-L6 (antibody, human IgG1, V domains shown, Human IgG1 FES (L234F, L235E, P331S) and human Ig kappa constant domains) VH: EVQLVQSGAEVKKPGASVKVSCKTSGFAFTSYWMNWVRQAPGQGLEWIGRIDPSDSEAHYHHKFWGRATLTVDKSSSTVYMELSSLRSEDTAVYYCLRSLYGKGDYWGHGTTVTVSS VL: DIVMTQTPPSLPVNPGEPASISCRSSQSLVHRNGNTYLEWYLQKPGQSPQLLIYKVSNRFSGVPDRFSGSGSGSDFTLKISWVEAEDVGVYYCYQGSHVPLTFGGGTKVEIK | 1960 |
| Hu3F6-H4/Hu3F6-L2 (antibody, human IgG1, V domains shown, Human IgG1 FES (L234F, L235E, P331S) and human Ig kappa constant domains) VH: EVQLVQSGAEVKKPGASVKVSCKTSGFAFTSYWMNWVRQAPGQGLEWIGRIDPSDSEAHYHHKFWGRATLTVDKSSSTVYMELSSLRSEDTAVYYCLRSLYGKGDYWGHGTTVTVSS VL: DVVMTQSPLSLPVTLGQPASISCRSSQSLVHRNGNTYLEWYQQRPGQSPRRLIYKVSNRFSGVPDRFSGSGSGTDFTLKISRVEAEDVGVYYCYQGSHVPLTFGGGTKVEIK | 255 |
| Hu3F6-H5/Hu3F6-L7 (antibody, human IgG1, V domains shown, Human IgG1 FES (L234F, L235E, P331S) and human Ig kappa constant domains) VH: EVQLVQSGAEVKKPGASVKVSCKTSGFAFTSYWMNWVRQAPGQGLEWIGRIDPSDSEAHYAHKFWGRATLTVDKSSSTVYMELSSLRSEDTAVYYCLRSLYGKGDYWGHGTTVTVSS VL: DVVMTQTPPSLPVNPGEPASISCRSSQSLVHRNGNTYLEWYLQKPGQSPQLLIYKVSNRFSGVPDRFSGSGSGSDFTLKISWVEAEDVGVYYCYQGSHVPLTFGGGTKVEIK | 1890 |
| Hu3F6-H4/Hu3F6-L7 (antibody, human IgG1, V domains shown, Human IgG1 FES (L234F, L235E, P331S) and human Ig kappa constant domains) VH: EVQLVQSGAEVKKPGASVKVSCKTSGFAFTSYWMNWVRQAPGQGLEWIGRIDPSDSEAHYHHKFWGRATLTVDKSSSTVYMELSSLRSEDTAVYYCLRSLYGKGDYWGHGTTVTVSS VL: DVVMTQTPPSLPVNPGEPASISCRSSQSLVHRNGNTYLEWYLQKPGQSPQLLIYKVSNRFSGVPDRFSGSGSGSDFTLKISWVEAEDVGVYYCYQGSHVPLTFGGGTKVEIK | 1880 |
| Hu3F6-H4/Hu3F6-L5 (antibody, human IgG1, V domains shown, Human IgG1 FES (L234F, L235E, P331S) and human Ig kappa constant domains) VH: EVQLVQSGAEVKKPGASVKVSCKTSGFAFTSYWMNWVRQAPGQGLEWIGRIDPSDSEAHYHHKFWGRATLTVDKSSSTVYMELSSLRSEDTAVYYCLRSLYGKGDYWGHGTTVTVSS VL: DVVMTQTPLSLSVTPGQPASISCRSSQSLVHRNGNTYLEWYLQKPGQSPQLLIYKVSNRFSGVPDRFSGSGSGTDFTLKISRVEAEDVGVYYCYQGSHVPLTFGGGTKVEIK | 1990 |
| Hu3F6-H4/Hu3F6-L4 (antibody, human IgG1, V domains shown, Human IgG1 FES (L234F, L235E, P331S) and human Ig kappa constant domains) VH: EVQLVQSGAEVKKPGASVKVSCKTSGFAFTSYWMNWVRQAPGQGLEWIGRIDPSDSEAHYHHKFWGRATLTVDKSSSTVYMELSSLRSEDTAVYYCLRSLYGKGDYWGHGTTVTVSS VL: DIVMTQTPLSLSVTPGQPASISCRSSQSLVHRNGNTYLEWYLQKPGQSPQLLIYKVSNRFSGVPDRFSGSGSGTDFTLKISRVEAEDVGVYYCYQGSHVPLTFGGGTKVEIK | 1450 |
